Assay [1] has as its target T1, Recombinant Human 4-1BB protein (human, UniProt Q07011 24-186).
T1 construct: also called h4-1BB; 4-1BB antigen
Description: phage ELISA on 4-1BB antigen-coated plates. (In general: In an ELISA, binding on a coated surface is turned into a signal by an enzyme label.)

Another assay has as its target T2, Recombinant Human BCMA (human, UniProt Q02223 1-54).
T2 construct: also called hBCMA; recombinant BCMA
T2 sequence: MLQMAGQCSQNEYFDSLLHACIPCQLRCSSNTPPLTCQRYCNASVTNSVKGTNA
The experiment in a line: single clone phage ELISA on coated recombinant BCMA. Here is the method: Specifically, the phage pool obtained according to Example 1-2 was sequentially diluted, and cultured on a solid medium containing LB-tetracycline/cabenicillin to obtain single colonies. Each colony was cultured on a 96-deep well plate so that OD600 was from 0.5 to 0.7. 20 MOI of helper phage was added to each well, and reacted at 37° C. for 1 hour. Thereafter, kanamycin was added to each well and incubated overnight at 30° C. On the next day, the culture was centrifuged and the supernatant thereof was collected, and then, ELISA was performed to select BCMA-specific phages. Each well of the ELISA plate was coated with 100 ng of recombinant BCMA, and then incubated with PBS-B (3% BSA containing PBS) to prevent nonspecific binding. Thereafter, the plate was washed with PBS. The prepared single clone phage was added to each well and incubated at 37° C. for 1 hour, and the plate was washed three times with PBS-T. For detecting the bounded phages, horseradish peroxidase (HRP) conjugated anti-hemagglutinin (HA) antibody was added to each well. After washing step with PBS-T, tetramethylbenzidine (TMB, Sigma, T0440) was added. Clones, which are with an absorbance that is 0.5 or more at the wavelength of 450 nm and also the absorbance is at least 5 times greater than that of the control with anti-HA HRP alone, were selected. Four antibody clones (B58, 5B5, 5D5, and 5A6), which specifically bind to human BCMA, were selected.

B1: AB41 (phage antibody clone) (other)
VH: QVQLQQSGAEVIKPGASVKLSCKASGYTFSSYWMHWVRQAPGQGLEWIGEINPGNGHTNYNEKFKSRATLTGDTSTSTVYMELSSLRSEDTAVYYCARSFTTARAFAYWGQGTLVTVSS
VL: DIVMTQSPAFLSVTPGEKVTITCRASQTISDYLHWYQQKPDQAPKLLIKYASQSISGIPSRFSGSGSGTDFTFTISSLEAEDAATYYCQDGHSFPPTFGQGTKLEIK
notes: Clone as selected by phage ELISA
Turning to B1, the binding result in assay [1] was “binds”.

B2: 5A6 (phage antibody clone) (scFv, V domains shown)
VH: EVQLLESGGGLVQPGGSLRLSCAASGFTFSNYGVHWVRQAPGKGLEWVSYISYSGGTYYNPSLKSRFTISRDNSKNTLYLQMNSLRAEDTAVYYCARDSDDFGFDYWGQGTLVTVSS
VL: QSVLTQPPSASGTPGQRVTISCQGDSLRSYYVNWYQQLPGTAPKLLIYDHSKRPTGVPDRFSGSKSGTSASLAISGLRSEDEADYYCQSYDSSTVVFGGGTKLTVL
For B2, the binding result with Recombinant Human BCMA is listed as “binds”.
